This experiment has as its target human SSTR2 (isoform A, UniProtKB P30874) (human) (UniProt P30874). Description: flow cytometry, BON-1 cells, same staining conditions (FIG. 10B). For orientation: In flow cytometry, cells or beads pass a laser one at a time.

This is an account of results in patent US20210340264A1.

Sequence of human SSTR2 (P30874 whole entry, canonical isoform): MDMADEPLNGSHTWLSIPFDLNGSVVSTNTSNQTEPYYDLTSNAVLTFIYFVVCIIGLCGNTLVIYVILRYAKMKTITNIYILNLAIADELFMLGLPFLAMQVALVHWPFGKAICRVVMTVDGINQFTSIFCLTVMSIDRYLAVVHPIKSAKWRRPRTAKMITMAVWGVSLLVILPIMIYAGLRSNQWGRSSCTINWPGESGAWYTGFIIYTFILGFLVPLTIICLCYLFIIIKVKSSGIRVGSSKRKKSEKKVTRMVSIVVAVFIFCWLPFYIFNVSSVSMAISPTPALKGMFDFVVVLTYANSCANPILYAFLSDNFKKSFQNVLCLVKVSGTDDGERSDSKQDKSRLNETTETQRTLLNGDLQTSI

Regarding “commercial anti-SSTR2 mAb (R&D Systems, Catalog# MAB4224) (antibody)”, the surface binding percentage was found to be 38%.
